The record followed here is the supplement of paper PMC12764529.

± gives the half width of the 95% confidence interval.

The nature of series [1]: folding stability dG unfold (combined trypsin and chymotrypsin); higher = more stable. In outline: (§1)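 Only designs with AlphaFold2 dimer inter-PAE above 15 were retained; each was a mini-protein under 80 residues with no cysteine, in a PA-tagged cDNA display construct. After digestion with trypsin and chymotrypsin and sequencing, K50 was inferred by Bayesian fitting of counts, and unfolding free energy was derived per protease or combined against a sequence-predicted unfolded-state K50 and a shared folded-state K50.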

Series [2] can be described thus: folding stability dG unfold from trypsin proteolysis; higher = more stable. In outline: as §1
Series [3] in a line: folding stability dG unfold from chymotrypsin proteolysis; higher = more stable. In outline:
as §1

On to “SAGGSAPPVKVDVEELDDDLVKVTVTFPGGPFTLKLYKDGKLLKEETVPEDETATFVLPKDALIVGSAGGSA [r15_581_TrMRF]”, for which the “folding stability dG unfold” value is 1.36 ± 0.059 kcal/mol in series [1], 0.847 ± 0.051 kcal/mol in series [2] and 1.59 ± 0.064 kcal/mol in series [3].
In the same order, the values of “SAGGSAPVTEGPNSITVTRDLDPSESEEEVRALAEEILAALPADVSVSVEFDPETGTATITITFPGSAGGSA [r15_210_JUSTAS]” are 2.15 ± 0.055 kcal/mol, 2.31 ± 0.054 kcal/mol and 1.95 ± 0.051 kcal/mol.
Taken in the same sequence, the figures for “SAGGSAPVTLETEFFGENGLLVRTEAVVDPATGEVTVRTETFPVITGPADNPDVVKKLLEEAGIDASAGGSA [r2_304_TrMRF]” were 0.887 ± 0.23 kcal/mol, 0.645 ± 0.059 kcal/mol and 0.817 ± 0.094 kcal/mol.
In the same order, the values of “SAGGSARALLEELEVLSEEDRGDFTVVTVKGPAAEYPAEEVRAALEALGIAVEYDPATGEVTVYVASAGGSA [r15_599_JUSTAS]” are 0.69 ± 0.071 kcal/mol, -0.0454 ± 0.023 kcal/mol and 0.964 ± 0.084 kcal/mol.
“SAGGSARWFLIRIEFVFGGEPRTFSVLIDVDPGEIEIEIPPELQKKGFQIKDIEIWPLPPEDLKKLSAGGSA [r15_853_TrROS]”: the “folding stability dG unfold” value in series [1] stood at 2.84 ± 0.18 kcal/mol; in series [2] it was 2.22 ± 0.04 kcal/mol; in series [3], 3.18 ± 0.11 kcal/mol.
With “SAGGSASAEELAAELARRLAEELGLEVTKVEITEVTPDRVVVRVTVTVTLPNGEKVTRELTLVLEPSAGGSA [r15_276_TrROS_Hall]”, the “folding stability dG unfold” value is 3.05 ± 0.11 kcal/mol in series [1], 2.16 ± 0.054 kcal/mol in series [2] and 3.24 ± 0.12 kcal/mol in series [3].
In the same order, the values of “SAGGSASAPVPTSVSVSVSSDPASGLTTIPTTVTYNGKTFPMSVTTTPSGTVVTKVGGSTFTVPAASAGGSA [r15_507_JUSTAS]” are -0.0606 ± 0.077 kcal/mol, 0.0583 ± 0.075 kcal/mol and -0.286 ± 0.11 kcal/mol.
In the same order, the values of “SAGGSASIKVTYRFPPDTTVEQAIEDLIAYLEAQTNVKISIPSYTVEREGDYLLVTADILIEPLPESAGGSA [r15_105_TrMRF]” are 4.59 ± 0.073 kcal/mol, 4.18 ± 0.086 kcal/mol and 4.61 ± 0.056 kcal/mol.
Taken in the same sequence, the figures for “SAGGSASLASLRKVGETVTYTITPDGTLTVTTHTFYRDPVTGELVVESTTTTTPIPPGDAAALAALSAGGSA [r15_207_JUSTAS]” were 2.5 ± 0.098 kcal/mol, 2.72 ± 0.072 kcal/mol and 2.37 ± 0.054 kcal/mol.
As for “SAGGSASLEELAEKLREKLPPEEAEKLRELLKELEEKGYEIVEIRIEVLPNGEKKVTIKLKVKKKPSAGGSA [r15_613_TrROS_Hall]”, the entries for the “folding stability dG unfold” value in series [1], in series [2] and in series [3] were 3.41 ± 0.17 kcal/mol, 3.34 ± 0.2 kcal/mol and 3.32 ± 0.26 kcal/mol, respectively.
Taken in the same sequence, the figures for “SAGGSASLEEVASLPASALAAAAGLTALSVEVTREPDGTVTVTIETRPPDGPVVTVTYTFPVDPAASAGGSA [r15_805_JUSTAS]” were 2.06 ± 0.39 kcal/mol, 0.848 ± 0.2 kcal/mol and 2.6 ± 0.098 kcal/mol.
In the same order, the values of “SAGGSASLNLTPDDNVTLTVSTPDGSGATVEVKVEKLPDGTIKLTETVTWPDGTVSTRTSTISTKASAGGSA [r15_476_JUSTAS]” are 0.893 ± 0.041 kcal/mol, 1.08 ± 0.045 kcal/mol and 0.598 ± 0.028 kcal/mol.
In the same order, the values of “SAGGSASMARVEAIAEEIAPRLKAEGRPIARIEVTATRLPDGTVVVPITLTTPDGTPVYTFEVVVESAGGSA [r15_232_JUSTAS]” are 1.48 ± 0.058 kcal/mol, 1.03 ± 0.051 kcal/mol and 1.74 ± 0.032 kcal/mol.
As for “SAGGSASMSKTTTETSPDSETTTTTYYPNGTVTTTKTTTVGEGTTTTTTTTKVLFIPGPGVLVPEPSAGGSA [r15_746_JUSTAS]”, the entries for the “folding stability dG unfold” value in series [1], in series [2] and in series [3] were 0.259 ± 0.046 kcal/mol, -0.174 ± 0.045 kcal/mol and 0.514 ± 0.062 kcal/mol, respectively.
Taken in the same sequence, the figures for “SAGGSASMVEEEVTLQKKVKSEEEALKFAEEVKESNPHVKTVEVSLEKLPDGSILVNVTIKRILKPSAGGSA [r15_726_JUSTAS]” were 4.21 ± 0.29 kcal/mol, 4.43 ± 0.4 kcal/mol and 3.31 ± 0.093 kcal/mol.
As for “SAGGSASNLKVTYKITIGSTTITVTLPEGSEKELKKIPNAEVTPISEIEPAPPPILYFKFENNNLVSAGGSA [r15_443_JUSTAS]”, the “folding stability dG unfold” value came to 1.09 ± 0.089 kcal/mol in series [1], 0.739 ± 0.047 kcal/mol in series [2] and 1.25 ± 0.17 kcal/mol in series [3].
Take “SAGGSASPEKVAEELKKKGYKEVKITKDPNTNVTTVTVEDPSGKKYTLTVDPKNPTVVSKKEFSLDSAGGSA [r15_648_JUSTAS]”: the “folding stability dG unfold” value in series [1] came to 1.25 ± 0.14 kcal/mol; in series [2] it was 0.926 ± 0.043 kcal/mol; in series [3] it was 1.51 ± 0.096 kcal/mol.
In the same order, the values of “SAGGSASRRLFVRTLPDDAVIVVEVPPGMSEEEAVEIAERRAEAAERVLRAAIEAERAGKAPVIPLSAGGSA [r15_704_TrMRF]” are 0.342 ± 0.11 kcal/mol, 0.594 ± 0.13 kcal/mol and -0.0499 ± 0.29 kcal/mol.
Taken in the same sequence, the figures for “SAGGSASSMLSPSLYVTTITVKKPGGMTVTETVPGTPEEVERLIEELKKKGLEVEKVDVVPVSELVSAGGSA [r15_640_JUSTAS]” were 1.66 ± 0.058 kcal/mol, 1.9 ± 0.062 kcal/mol and 1.47 ± 0.034 kcal/mol.
In the same order, the values of “SAGGSASSYGIEIEFSEDPNSKTKKITITVTRPDGTVETVTITNPDITDEEAKKIGEELANEVANSSAGGSA [r15_526_JUSTAS]” are 2.06 ± 0.059 kcal/mol, 2.19 ± 0.055 kcal/mol and 1.93 ± 0.02 kcal/mol.
In the case of “SAGGSASVTTTVTLPNGEVVTITFDPANPTTATLSFPDGTTVTLSFSSPEEALARAIEELLAGKPLSAGGSA [r15_38_JUSTAS]”, the results for the “folding stability dG unfold” value in series [1], in series [2] and in series [3] were 2.48 ± 0.081 kcal/mol, 2.99 ± 0.1 kcal/mol and 2.01 ± 0.056 kcal/mol, respectively.
Regarding “SAGGSATAEELADEIANYMADRHGMEVKKIEITDVDNDRVVFRAEVEMPNPNGKKHTHPFTIEIPVSAGGSA [r15_276_TrROS]”, the “folding stability dG unfold” value in series [1] is 0.226 ± 0.29 kcal/mol; in series [2], -0.0958 ± 0.17 kcal/mol; in series [3] it was 0.303 ± 0.31 kcal/mol.
In the same order, the values of “SAGGSATIEEKIRNIAKEQGFPVTDVQVRRTPGKVYIMFQAKDPRMYYIEIDNDKIKIMPAEDIKPSAGGSA [r15_901_TrROS]” are 1.36 ± 0.06 kcal/mol, 1.14 ± 0.027 kcal/mol and 1.57 ± 0.064 kcal/mol.
Taken in the same sequence, the figures for “SAGGSATLKEIAKEIEKTVKPKYAKKLAKTIEEAVKKGYEIKKIIIEKPKDDSFKATIYLKKPNDPSAGGSA [r15_613_TrMRF]” were 0.66 ± 0.27 kcal/mol, 0.676 ± 0.14 kcal/mol and 0.294 ± 0.45 kcal/mol.
On to “SAGGSATLPEKILEELAAAGYPLEYVTITEVKTEERPGSVVVTVKVEYKVPNSDRIETVNLTVPRPSAGGSA [r15_863_JUSTAS]”, for which the results for the “folding stability dG unfold” value in series [1], in series [2] and in series [3] were 1.73 ± 0.036 kcal/mol, 1.71 ± 0.032 kcal/mol and 1.68 ± 0.029 kcal/mol, respectively.
For the sequence “SAGGSATLTLEAEFRLEDGTTVRVRVEVSPDGTVRIEVEVLPAPPPPPKVEVKEVFTTADGRKVLLSAGGSA [r2_78_TrROS_Hall]”, the “folding stability dG unfold” value was 1.57 ± 0.1 kcal/mol in series [1], 1.2 ± 0.035 kcal/mol in series [2] and 1.62 ± 0.063 kcal/mol in series [3].
Taken in the same sequence, the figures for “SAGGSATPKDPDGKEWKPIAVIDIEEMRPETLKELLEENKGPIWIHPPGEGKPFWIPADEIEDMIDSAGGSA [r15_904_TrROS]” were 0.336 ± 0.21 kcal/mol, 0.668 ± 0.054 kcal/mol and -0.129 ± 0.2 kcal/mol.
As to “SAGGSATQVVLKITIKINKGEKEETREIVLPATDPEEAIAKVKKELKEKGIDAEIEELEILPVDLLSAGGSA [r15_165_JUSTAS]”, the entries for the “folding stability dG unfold” value in series [1], in series [2] and in series [3] were 1.27 ± 0.15 kcal/mol, 1.31 ± 0.089 kcal/mol and 0.919 ± 0.059 kcal/mol, respectively.
Taken in the same sequence, the figures for “SAGGSAVERLRELLKELGVEVTVERKDGKVYIRVEASPEKREKLAEALRELFGKDIEIEVLEEGEEPSAGGS [r16_514_TrROS_Hall]” were 3.49 ± 0.08 kcal/mol, 3.86 ± 0.18 kcal/mol and 3.17 ± 0.073 kcal/mol.
In the same order, the values of “SAGGSAVIEFELELRTRPDGSVEEEEIIAEARELIEAIPEAENAEILEIRREAFPDGTVRYHVRVRVPSAGG [r13_462_TrMRF]” are 3.19 ± 0.072 kcal/mol, 3.46 ± 0.072 kcal/mol and 3.01 ± 0.036 kcal/mol.
As to “SAGGSAVKIDPKTKVIEVKNPETGETYRISLPDVPPEDGVEVEVGDDKIIIKTPKGTKEIPIDKAKSAGGSA [r15_864_TrMRF]”, the “folding stability dG unfold” value in series [1] was 0.529 ± 0.25 kcal/mol; in series [2], -0.000856 ± 0.16 kcal/mol; in series [3] it was 0.794 ± 0.18 kcal/mol.
Turning to “SAGGSAVPAEAKKKVFLKPVKVNIPLPGNYEIVEIDPKTGKIVIKVPGSSKTLVVDLKSGKVYEFGSAGGSA [r15_452_TrMRF]”, the figures for the “folding stability dG unfold” value in series [1], in series [2] and in series [3] were 1.51 ± 0.14 kcal/mol, 1.19 ± 0.061 kcal/mol and 1.78 ± 0.085 kcal/mol, respectively.
Take “SAGGSAVSISTVTSTSFPGSGTSVKTYETPDFTVTVTTTRDPNGADTVEIHTDDPEAEKTVREYLASAGGSA [r15_42_JUSTAS]”: the “folding stability dG unfold” value in series [1] is 0.337 ± 0.14 kcal/mol; in series [2], 0.601 ± 0.049 kcal/mol; in series [3] it was -0.348 ± 0.28 kcal/mol.
Taken in the same sequence, the figures for “SAGGSAVVVTTDPNGTLTVYADNKVVKVKVIPLPRPDPLTGSTSTLLLVEVEVSPLKPDPLPPEFPSAGGSA [r15_515_TrMRF]” were 2.44 ± 0.2 kcal/mol, 2.21 ± 0.2 kcal/mol and 2.65 ± 0.12 kcal/mol.
Taken in the same sequence, the figures for “SAGGSAYGYFYEYKIRFNGQDLSIALPAGDMEKLKDLPGVEIEPRRPEEPPPPPKEEERDPDGKKKSAGGSA [r15_443_TrROS]” were 2.8 ± 0.24 kcal/mol, 2.3 ± 0.18 kcal/mol and 2.98 ± 0.071 kcal/mol.
In the same order, the values of “SAGGSDEHEYKGTGRDPDNGQTREETYRVEPVVPPIPISISVSLNLDIDPNGNLNWDFNISIGIGISAGGSA [r2_326_TrROS]” are 3.33 ± 0.37 kcal/mol, 2.78 ± 0.2 kcal/mol and 3.81 ± 0.33 kcal/mol.
